In US20140255383A1 (SYNAGEVA BIOPHARMA, published 2014):

Target: Mannose 6-phosphate receptor (M6P receptor) on human MPS IIIB fibroblasts (human)
Assay: cell-based or functional assay

cellular uptake: NaGlu activity in MPS IIIB fibroblasts treated with 0.3 µg/mL rhNaGlu for 24 hours, against wild-type fibroblasts: ~50 % of wild-type activity | cellular uptake: NaGlu activity in MPS IIIB fibroblasts treated with 1 µg/mL rhNaGlu for 24 hours, against wild-type fibroblasts: ~4 fold of wild-type activity | cellular uptake: NaGlu activity in MPS IIIB fibroblasts treated with 30 µg/mL rhNaGlu for 24 hours, against wild-type fibroblasts: ≥ 40 fold of wild-type activity
B1: recombinant human N-acetyl-alpha-D-glucosaminidase (rhNaGlu) produced from a transgenic avian (Gallus) (enzyme)
chain: DEAREAAAVRALVARLLGPGPAADFSVSVERALAAKPGLDTYSLGGGGAARVRVRGSTGVAAAAGLHRYLRDFCGCHVAWSGSQLRLPRPLPAVPGELTEATPNRYRYYQNVCTQSYSFVWWDWARWEREIDWMALNGINLALAWSGQEAIWQRVYLALGLTQAEINEFFTGPAFLAWGRMGNLHTWDGPLPPSWHIKQLYLQHRVLDQMRSFGMTPVLPAFAGHVPEAVTRVFPQVNVTKMGSWGHFNCSYSCSFLLAPEDPIFPIIGSLFLRELIKEFGTDHIYGADTFNEMQPPSSEPSYLAAATTAVYEAMTAVDTEAVWLLQGWLFQHQPQFWGPAQIRAVLGAVPRGRLLVLDLFAESQPVYTRTASFQGQPFIWCMLHNFGGNHGLFGALEAVNGGPEAARLFPNSTMVGTGMAPEGISQNEVVYSLMAELGWRKDPVPDLAAWVTSFAARRYGVSHPDAGAAWRLLLRSVYNCSGEACRGHNRSPLVRRPSLQMNTSIWYNRSDVFEAWRLLLTSAPSLATSPAFRYDLLDLTRQAVQELVSLYYEEARSAYLSKELASLLRAGGVLAYELLPALDEVLASDSRFLLGSWLEQARAAAVSEAEADFYEQNSRYQLTLWGPEGNILDYANKQLAGLVANYYTPRWRLFLEALVDSVAQGIPFQQHQFDKNVFQLEQAFVLSKQRYPSQPRGDTVDLAKKIFLKYYPRWVAGSW
modifications: glycosylated; glycans carry mannose-6-phosphate (3.2 moles of M6P per mole of protein), sites not stated
